Where a SMILES comes first, the peptide text is derived from it. Where no end group is shown, it is not given here. [ ]: non-standard residue; d: D form. The star is where a group is joined. Biotin = O=C1N[C@H]2[C@H](CS[C@H]2CCCCC(=O)*)N1; pY = N[C@@H](Cc1ccc(OP(=O)(O)O)cc1)C(=O)O
T1: GST-SHP-1.SH2(N + C) (Mus musculus, UniProt P29351)
T1 construct: Using recombinant soluble tandem SH2 domains of SHP-1 and SHP-2; made in house; host or cells: E. coli DH5α
T1 sequence (P29351 1-213 limits assumed): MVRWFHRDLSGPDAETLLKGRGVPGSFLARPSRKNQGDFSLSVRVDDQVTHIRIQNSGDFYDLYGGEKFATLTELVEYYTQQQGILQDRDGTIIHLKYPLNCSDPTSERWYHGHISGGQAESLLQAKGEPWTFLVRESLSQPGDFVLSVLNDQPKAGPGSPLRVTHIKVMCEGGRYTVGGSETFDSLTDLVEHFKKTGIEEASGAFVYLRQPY

T2: GST-SHP-2.SH2(N + C) (Mus musculus, UniProt P35235)
T2 construct: Using recombinant soluble tandem SH2 domains of SHP-1 and SHP-2; made in house; host or cells: E. coli DH5α
T2 sequence (P35235 1-216 limits assumed): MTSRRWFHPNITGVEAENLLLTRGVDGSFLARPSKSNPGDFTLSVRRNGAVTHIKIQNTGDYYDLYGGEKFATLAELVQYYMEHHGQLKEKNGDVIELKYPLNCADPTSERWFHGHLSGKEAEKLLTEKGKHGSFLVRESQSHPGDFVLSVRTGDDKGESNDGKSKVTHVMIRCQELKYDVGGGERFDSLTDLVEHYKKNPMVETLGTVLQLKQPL

T3: SHIP polyinositol phosphatase from RBL-2H3 cell lysates (rat (cell line RBL-2H3), UniProt P97573 1-1190, limits assumed)
T3 construct: Detected by immunoblot with anti-SHIP antiserum
T3 sequence (looked up): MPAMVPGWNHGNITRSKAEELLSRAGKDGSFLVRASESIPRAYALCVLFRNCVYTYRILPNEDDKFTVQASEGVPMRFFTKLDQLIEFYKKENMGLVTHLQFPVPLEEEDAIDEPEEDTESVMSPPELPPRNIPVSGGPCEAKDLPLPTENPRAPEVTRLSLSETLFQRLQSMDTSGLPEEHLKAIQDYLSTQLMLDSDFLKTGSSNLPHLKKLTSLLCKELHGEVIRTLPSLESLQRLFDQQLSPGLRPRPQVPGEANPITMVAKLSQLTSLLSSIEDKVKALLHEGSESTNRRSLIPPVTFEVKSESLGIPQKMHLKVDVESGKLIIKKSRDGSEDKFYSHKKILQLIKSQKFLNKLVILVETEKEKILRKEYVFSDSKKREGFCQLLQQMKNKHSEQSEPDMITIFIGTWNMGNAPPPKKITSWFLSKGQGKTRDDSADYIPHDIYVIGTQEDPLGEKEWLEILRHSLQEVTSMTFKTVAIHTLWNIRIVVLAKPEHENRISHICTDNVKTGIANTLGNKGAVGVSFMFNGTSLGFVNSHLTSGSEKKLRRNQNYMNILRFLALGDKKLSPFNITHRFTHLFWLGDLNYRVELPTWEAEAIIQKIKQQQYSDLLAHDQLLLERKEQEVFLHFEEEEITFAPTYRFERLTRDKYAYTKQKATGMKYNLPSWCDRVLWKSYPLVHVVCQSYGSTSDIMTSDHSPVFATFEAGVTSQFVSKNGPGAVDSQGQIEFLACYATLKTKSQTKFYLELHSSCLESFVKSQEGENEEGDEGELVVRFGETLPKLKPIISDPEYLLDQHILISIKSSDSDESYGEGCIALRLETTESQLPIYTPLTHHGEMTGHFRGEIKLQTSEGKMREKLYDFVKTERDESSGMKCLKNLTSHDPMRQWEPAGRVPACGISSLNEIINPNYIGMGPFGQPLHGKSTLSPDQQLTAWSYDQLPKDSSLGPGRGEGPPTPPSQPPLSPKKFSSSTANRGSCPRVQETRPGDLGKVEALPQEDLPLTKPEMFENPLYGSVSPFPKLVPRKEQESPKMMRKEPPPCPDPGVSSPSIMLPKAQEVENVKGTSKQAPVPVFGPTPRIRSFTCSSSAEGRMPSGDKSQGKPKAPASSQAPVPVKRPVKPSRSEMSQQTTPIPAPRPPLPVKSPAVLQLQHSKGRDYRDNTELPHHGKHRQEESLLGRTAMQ

B1: phosphorylated Ly-49A ITIM peptide (peptide)
peptide: Biotin-MSEQEVT[pY]SMVRF
notes: also called Ly-19A

Tests used:
[1] = target: phosphorylated p58.2.1 peptide (N-terminal KIR ITIM) (human); assay: SPR (BIAcore), phosphopeptide on streptavidin chip, GST fusion injected
[2] = target: phosphorylated p58.2.2 peptide (C-terminal KIR ITIM) (human); assay: as above
GST-SHP-1.SH2(N + C) = target: T1, GST-SHP-1.SH2(N + C); assay: Surface plasmon resonance (BIAcore), SHP-1 tandem SH2 domains; format: binding, murine; conditions: for koff / kon: 25 RU phosphorylated peptide immobilized, 5 μl/min
Description: (§1) Surface plasmon resonance measurements were performed on a BIAcore apparatus (BIAcore). The GST-SHP1.SH2(NC), GST-SHP2.SH2(NC) and GST-SHIP.SH2 fusion proteins generated from the murine phosphatase cDNAs, were purified from DH5α lysates as previously described. Before their use in BIAcore experiments, fusion proteins were dialyzed in HBS buffer pH 7.4 (10 mM HEPES, 150 mM NaCl, 3.4 mM EDTA). Protein purity was assessed by 12.5% SDS-PAGE, and Coomassie blue staining. The running buffer used in all BIAcore experiments consisted of HBS buffer supplemented with 0.05% surfactant P20. Equilibrium constant determination (koff and kon) was performed using BIAevaluation 2.0 software. The equilibrium dissociation constants KD were calculated from the koff/kon ratio.
(§2) Results are illustrated by FIG. 16 showing the BIAcore analysis of NKG2A ITIM interaction with the SH2 domains of SHP-1, SHP-2 and SHIP phosphatases. In FIG. 16, the binding of 100 nM soluble recombinant GST-SHP-1.SH2(N+C), GST-SHP-2.SH2(N+C) or GST-SHIP.SH2 to immobilized NKG2A/B phosphorylated ITIM peptides (25 RU) was monitored by real-time analysis using surface plasmon resonance. Results are expressed as corrected resonance units (CRU) corresponding to the raw RU values after subtraction of background RU value due to the injection medium.
(§3) The measurement of phosphorylated peptide binding to GST-SHP-1.SH2(N+C) and GST-SHP-2.SH2(N+C) fusion proteins was performed at a constant 5 μl/min flow rate. In this representative experiment, 25 RU of phosphorylated NKG2A N-term and NKG2A C-term peptides were immobilized on streptavidin microchips. The regeneration was performed using HBS buffer supplemented with 0.03% SDS. Results are expressed as corrected resonance units (CRU) corresponding to the raw RU values after subtraction of background RU value due to the injection medium, koff and kon were calculated from three independent measurements using the BIAevaluation 2.0 software. In addition, kon was calculated as the slope of the curve kg=kon×c−koff, where koff is the off-rate constant and c is the concentration of the soluble recombinant GST fusion proteins. By plotting kg as a function of c, a linear regression fit was obtained (r^2>0.98) for the binding of NKG2A ITIM N- and C-term to SHP-1 and SHP-2 tandem SH2 domains. This linear representation allows to check on the validity of the single step interaction and to confirm the determination of the kon constant using non-linear analysis (BIAevaluation software).

GST-SHP-2.SH2(N + C) = target: T2, GST-SHP-2.SH2(N + C); assay: Surface plasmon resonance (BIAcore), SHP-2 tandem SH2 domains; format: binding, murine; conditions: for koff / kon: 25 RU phosphorylated peptide immobilized, 5 μl/min
Description: as §1, §2, §3

[3] = target: human p58.2 KIR (CD158b), HLA-Cw3-specific killer-cell inhibitory receptor (human) (UniProt P43628); assay: cell-based or functional assay
[4] = target: T3, SHIP polyinositol phosphatase from …; assay: cell lysate adsorption to peptide beads, immunoblot (RBL-2H3), FIG. 15A
Description: In an attempt to characterize the function of these putative ITIMs, cell lysates were incubated with phosphorylated and nonphosphorylated synthetic peptides corresponding to the N-terminal and the C-terminal I/VxYxxL stretches present in NKG2A intracytoplasmic domain. Cell lysates absorbed to peptides were then assayed by immunoblotting for the presence of the phosphatases known to interact with phosphorylated ITIMs, i.e. the protein tyrosine phosphatases SHP-1 and SHP-2, as well as the polyinositol phosphate phosphatase, SHIP. In parallel, lysates adsorption were performed using control peptides corresponding to ITIMs present in Ig-like ITIM bearing receptors such as human KIRs (p58.2/CD158b, a receptor for HLA-Cw3) and mouse FcγRIIB, as well as in mouse lectin-like ITIM-bearing receptor, such as Ly-49A.
As shown in FIG. 15A (lanes 1 and 2), both N- and C-terminal I/VxYxxL stretches present in NKG2A associate with SHP-1 and SHP-2 in vitro, but no binding to SHIP was detected. Similar patterns of association were obtained using the phosphorylated ITIM peptides of […] and p58.2 KIR (FIG. 15A, lanes 3 to 5). In contrast, FcγRIIB phosphorylated ITIM peptides also associate with SHIP (FIG. 15A, lane 6). No association of phosphatases with nonphosphorylated peptides corresponding to FcγRIIB (FIG. 15A, lane 7) and NKG2A N- and C-terminal I/VxYxxL stretches was detected. When nonphosphorylated and phosphorylated peptides were used to adsorb lysates prepared from ³⁵S methionine/cysteine-labeled cells, only two bands around 64 and 68 kDa selectively associate with both phosphorylated NKG2A N- and C-terminal I/VxYxxL stretches, as compared to nonphosphorylated ones (FIG. 15B). The 64 and 68 kDa proteins which bind to phosphorylated NKG2A peptides correspond to SHP-1 and SHP-2 apparent molecular weight respectively, supporting the immunoblotting results. Therefore, our results define the two NKG2A I/VxYxxL stretches as ITIMs which appear to function similarly to other ITIMs present in inhibitory receptors for MHC class I molecules, i.e. KIRs and Ly-49 molecules. Using recombinant soluble tandem SH2 domains of SHP-1 and SHP-2, we confirmed by surface plasmon resonance that both NKG2A ITIM phosphopeptides directly associate with the SH2 domains of SHP-1 and SHP-2, but not with the SH2 domain of SHIP (FIG. 16).

[5] = calculated from the koff/kon ratio

Chain of phosphorylated p58.2.2 peptide (C-terminal KIR ITIM) (human) (peptide, as listed by the source): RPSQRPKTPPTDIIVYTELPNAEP
Chain of human p58.2 KIR (CD158b), HLA-Cw3-specific killer-cell inhibitory receptor (human) (P43628 22-341): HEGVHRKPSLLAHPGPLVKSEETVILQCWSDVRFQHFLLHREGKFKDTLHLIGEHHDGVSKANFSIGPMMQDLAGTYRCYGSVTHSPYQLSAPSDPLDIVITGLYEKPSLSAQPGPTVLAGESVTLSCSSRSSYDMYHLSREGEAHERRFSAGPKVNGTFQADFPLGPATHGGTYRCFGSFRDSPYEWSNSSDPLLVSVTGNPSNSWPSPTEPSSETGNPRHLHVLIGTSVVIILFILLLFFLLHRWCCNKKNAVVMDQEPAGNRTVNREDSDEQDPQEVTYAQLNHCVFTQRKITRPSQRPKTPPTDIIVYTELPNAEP

Row | Molecule | Kd [1] [nM] | koff [1] [s⁻¹] | kon [1] [M⁻¹ s⁻¹] | Kd [2] [nM] | koff [2] [s⁻¹] | kon [2] [M⁻¹ s⁻¹] | koff (GST-SHP-1.SH2(N + C)) [s⁻¹] | kon (GST-SHP-1.SH2(N + C)) [M⁻¹ s⁻¹] | koff (GST-SHP-2.SH2(N + C)) [s⁻¹] | kon (GST-SHP-2.SH2(N + C)) [M⁻¹ s⁻¹] | other results
1 | GST-SHP-1.SH2(N) fusion protein (from UniProt P29351 1-106) | 423 | 0.042 | 100000 | 3160 | 0.025 | 8000 |  |  |  |  | 
2 | CC[C@H](C)[C@H](NC(=O)[C@@H](NC(=O)CNC(=O)[C@H](CCC(N)=O)NC(=O)[C@H](CC(N)=O)NC(=O)[C@H](CC(=O)O)NC(=O)[C@H](CCSC)NC(=O)CCCC[C@@H]1SC[C@@H]2NC(=O)N[C@@H]21)C(C)C)C(=O)N[C@@H](Cc1ccc(OP(=O)(O)O)cc1)C(=O)N[C@@H](CO)C(=O)N[C@@H](CC(=O)O)C(=O)N[C@@H](CC(C)C)C(=O)N[C@@H](CC(N)=O)C(=O)N[C@@H](CC(C)C)C(=O)O [NKG2-A N-terminal ITIM, MDNQGVIY8 SDLNL] (HELM PEPTIDE1{[O=C1N[C@H]2[C@H](CS[C@H]2CCCCC(=O)[*:2])N1].M.D.N.Q.G.V.I.[O=C([C@H](Cc1ccc(OP(=O)(O)O)cc1)N[*:1])[*:2]].S.D.L.N.L}$$$$V2.0) |  |  |  |  |  |  | 0.00189 | 390000 | 0.00142 | 1.03e+06 | Kd (GST-SHP-1.SH2(N + C); [5]): 4.8 nM; Kd (GST-SHP-2.SH2(N + C); [5]): 1.38 nM
3 | CC[C@H](C)[C@H](NC(=O)CCCC[C@@H]1SC[C@@H]2NC(=O)N[C@@H]21)C(=O)N[C@@H](CC(C)C)C(=O)N[C@@H](C)C(=O)N[C@H](C(=O)N[C@@H](CCC(=O)O)C(=O)N[C@@H](CCC(N)=O)C(=O)N[C@@H](CCC(=O)O)C(=O)N[C@H](C(=O)N[C@H](C(=O)N[C@@H](Cc1ccc(OP(=O)(O)O)cc1)C(=O)N[C@@H](C)C(=O)N[C@@H](CCC(=O)O)C(=O)N[C@@H](CC(C)C)C(=O)N[C@@H](CC(N)=O)C(=O)N[C@@H](CC(C)C)C(=O)O)[C@@H](C)O)[C@@H](C)CC)[C@@H](C)O [NKG2-A C-terminal ITIM, ILATEQEIT40 AELNL] (HELM PEPTIDE1{[O=C1N[C@H]2[C@H](CS[C@H]2CCCCC(=O)[*:2])N1].I.L.A.T.E.Q.E.I.T.[O=C([C@H](Cc1ccc(OP(=O)(O)O)cc1)N[*:1])[*:2]].A.E.L.N.L}$$$$V2.0; N-terminus and C-terminus assumed) |  |  |  |  |  |  | 0.00117 | 410000 | 0.00132 | 840000 | 
4 | GST-SHP-1.SH2(C) fusion protein (from UniProt P29351 107-217) | 137 | 0.0007 | 5000 | 545 | 0.0003 | 600 |  |  |  |  | 
5 | GL183 F(ab')2 |  |  |  |  |  |  |  |  |  |  | inhibition of CD25/CD3 zeta-induced serotonin release, RTIIBp58 B clone (GL183 1 µg/ml, anti-hCD25 3 µg/ml) [3]: 39.3%; inhibition of CD25/CD3 zeta-induced serotonin release, clone with unusually high CD25/CD3 zeta (GL183 F(ab')2 1 µg/ml) [3]: 14.1%; inhibition of FcεRI-induced serotonin release, first RTIIBp58 clone (GL183 1 µg/ml, IgE 10^-3 dilution, GAM) [3]: 72.8%; inhibition of FcεRI-induced serotonin release, second RTIIBp58 clone (GL183 1 µg/ml, IgE 10^-3 dilution, GAM) [3]: 55.8%
6 | B1 |  |  |  |  |  |  |  |  |  |  | binding result [4]: no binding

Reference: patent US20040038894A1, “Compounds for modulating cell negative regulations and biological applications thereof” (INSTITUT NATIONAL DE LA SANTE ET DE LA RECHERCHE MEDICALE …, priority 1996, published 2004)
